Assay [1] deals with T1, soluble human ILT2-ECD (human, UniProt Q8NHL6 24-461).
T1 construct: also called LILRB1 extracellular domain
Put plainly: Biacore competition: antibody titrated against 20 nM ILT2-ECD, mixture injected over biotinylated HLA-A*1101 on a NeutrAvidin chip; blocked ligand HLA-A*1101. As for the experimental part:
(§1) As part of the characterization process, the ability of exemplary antibodies to inhibit or block the interaction of ILT2 or ILT4 with their natural ligands was evaluated in competition experiments using a Biacore system. As described herein, the natural ligands of ILT2 and ILT4 include, but are not limited to, HLA class I molecules, including HLA-A, HLA-B, HLA-C, HLA-E, and HLA-G. Biotinylated HLA-A*1101 was captured in high amounts on a NeutrAvidin chip surface. Antigen-antibody complexes were prepared with (i) ILT2-ECD and anti-ILT2 antibody 27F9, anti-ILT4 antibody 48A5, or anti-ILT2/ILT4 antibody Hz73D1.v1 and (ii) ILT4-ECD and anti-ILT2 antibody 27F9, anti-ILT4 antibody 48A5, or anti-ILT2/ILT4 antibody Hz73D1.v1. The antibody concentration of each antibody was titrated from 0.09-100 nM and the concentration of human ILT2-ECD or ILT4-ECD was kept constant at 20 nM. The complexes were mixed in a 96-well microplate and each was injected onto the HLA-A-coated chip surface. The measured signal (response unit, RU) was plotted against the antibody concentration.
(SPR reads the build-up and loss of mass on a sensor chip optically.)

In assay [2] the target is T2, human ILT2 on cells (human, UniProt Q8NHL6 24-650). Put plainly: cell-based or functional assay.
T2 sequence (Q8NHL6 24-650): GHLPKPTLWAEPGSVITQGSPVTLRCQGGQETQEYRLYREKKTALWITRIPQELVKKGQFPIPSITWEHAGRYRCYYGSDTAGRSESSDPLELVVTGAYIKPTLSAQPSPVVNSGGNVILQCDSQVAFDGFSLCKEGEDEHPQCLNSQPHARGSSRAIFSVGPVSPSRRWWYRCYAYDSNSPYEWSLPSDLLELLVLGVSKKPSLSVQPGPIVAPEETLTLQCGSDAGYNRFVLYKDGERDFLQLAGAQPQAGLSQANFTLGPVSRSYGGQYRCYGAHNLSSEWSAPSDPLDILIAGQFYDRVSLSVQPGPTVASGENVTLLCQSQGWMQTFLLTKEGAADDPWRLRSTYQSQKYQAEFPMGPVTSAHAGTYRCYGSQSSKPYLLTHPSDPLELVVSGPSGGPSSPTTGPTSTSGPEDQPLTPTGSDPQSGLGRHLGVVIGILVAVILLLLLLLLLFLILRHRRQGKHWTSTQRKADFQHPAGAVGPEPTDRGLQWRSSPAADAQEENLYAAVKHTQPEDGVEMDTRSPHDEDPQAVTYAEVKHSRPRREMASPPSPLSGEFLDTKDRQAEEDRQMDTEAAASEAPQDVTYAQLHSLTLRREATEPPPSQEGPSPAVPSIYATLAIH
In assay [3] the target is T3, human ILT4 on cells (human, UniProt Q8N423 22-597). The assay can be described thus: cell-based or functional assay.
T3 sequence (Q8N423 other isoform, or with tags, fused parts or gaps): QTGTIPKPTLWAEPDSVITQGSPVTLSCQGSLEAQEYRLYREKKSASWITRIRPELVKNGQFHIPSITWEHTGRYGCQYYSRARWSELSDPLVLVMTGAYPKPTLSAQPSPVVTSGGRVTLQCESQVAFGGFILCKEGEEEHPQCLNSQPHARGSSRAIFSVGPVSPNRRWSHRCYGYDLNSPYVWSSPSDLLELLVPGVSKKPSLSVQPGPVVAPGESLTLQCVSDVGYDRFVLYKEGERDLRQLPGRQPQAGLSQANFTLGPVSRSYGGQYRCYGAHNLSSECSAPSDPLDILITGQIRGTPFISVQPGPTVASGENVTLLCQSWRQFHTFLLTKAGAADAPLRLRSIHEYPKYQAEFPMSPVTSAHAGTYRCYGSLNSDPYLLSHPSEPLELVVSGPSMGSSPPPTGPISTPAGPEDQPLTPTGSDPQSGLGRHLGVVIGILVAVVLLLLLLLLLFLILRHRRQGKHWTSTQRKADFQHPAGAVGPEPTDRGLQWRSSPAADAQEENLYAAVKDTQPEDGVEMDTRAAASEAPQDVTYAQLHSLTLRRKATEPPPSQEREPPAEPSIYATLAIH
For assay [4], the target named is T4, cynomolgus monkey ILT2 on cells (cynomolgus monkey).
T4 construct: also called cyno ILT2; ILT2 on cyno CD14+ monocytes
T4 sequence (chain, as listed by the source): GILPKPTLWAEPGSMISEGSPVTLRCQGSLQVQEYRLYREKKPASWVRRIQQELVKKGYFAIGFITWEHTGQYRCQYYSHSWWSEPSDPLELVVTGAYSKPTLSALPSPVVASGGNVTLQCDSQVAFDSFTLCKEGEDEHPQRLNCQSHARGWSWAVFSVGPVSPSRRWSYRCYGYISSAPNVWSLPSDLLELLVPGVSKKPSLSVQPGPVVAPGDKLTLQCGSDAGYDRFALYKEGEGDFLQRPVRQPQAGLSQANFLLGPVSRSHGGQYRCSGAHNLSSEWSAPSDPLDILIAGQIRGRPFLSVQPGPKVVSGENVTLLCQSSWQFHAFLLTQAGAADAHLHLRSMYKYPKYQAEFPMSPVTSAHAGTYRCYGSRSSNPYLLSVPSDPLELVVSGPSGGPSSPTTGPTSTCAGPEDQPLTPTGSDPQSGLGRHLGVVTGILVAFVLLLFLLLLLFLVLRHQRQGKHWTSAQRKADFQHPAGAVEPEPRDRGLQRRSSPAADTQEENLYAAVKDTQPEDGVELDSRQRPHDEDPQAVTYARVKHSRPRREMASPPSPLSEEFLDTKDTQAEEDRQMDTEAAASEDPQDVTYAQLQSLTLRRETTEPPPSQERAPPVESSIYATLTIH
Put plainly: flow cytometry, fluorescently labelled antibody on CD14+ monocytes of cyno PBMC (2 donors), geometric MFI. Here is the method:
The binding of anti-ILT2/ILT4 antibodies to monocytes was evaluated. The binding of exemplary anti-ILT2/ILT4 antibody 73D1 and the humanized version Hz73D1.v1 to the CD14+ monocyte population of human and cyno PBMC were determined by flow cytometry analysis. Briefly, human or cyno PBMCs (from 2 donors each) were thawed, washed in media (RPMI, 10% FBS, L-glutamine, pen/strep), and resuspended in fresh media. PBMCs were stained with a cocktail of labeled antibodies to differentiate between the different cell types. 1×10⁶ cells/well were stained with fluorescently-labelled 73D1 or Hz73D1.v1 antibody and incubated on ice. The cells were washed with ice-cold reagents and immediately analyzed by flow cytometry. The geometric mean fluorescence intensity for CD14+ monocytes was calculated for each sample. […] For example, the 50% effective concentration (EC₅₀) of Hz73D1.v1 was 8.8 nM with human monocytes and 1.8 nM with cyno monocytes.
A general note: Flow cytometry measures light scatter and fluorescence of single cells or particles in a stream.

The target of another assay is Human ILT2-Fc (human, UniProt Q8NHL6 24-461, limits assumed). The assay can be described thus: SPR (Biacore) competition: blocking of human ILT2-Fc binding to HLA-A, 25 C. As for the experimental part: (§2) In addition to the reporter cell system, the inhibitory activity of anti-ILT2/ILT4 antibodies towards the interaction between ILT2 and MHC I molecules, and the interaction between ILT4 and MHC I molecules was evaluated using the Biacore system. Human ILT2-Fc and ILT4-Fc were used as target receptors and their interaction with an exemplary MHC-I molecule (HLA-A) was assayed in the presence or absence of an exemplary anti-ILT2/ILT4 antibody Hz73D1.v1 at 25° C. Anti-human ILT2 (clone 27F9) or ILT4 (clone 48A5) antibodies were used as tool reagents to dissect ILT2- and ILT4-specific blocking activities. Anti-IL2/ILT4 antibodies produced a dose-dependent reduction in the interaction between ILT2 and HLA-A, as well as between ILT4 and HLA-A. IC50s of the antibodies tested are shown in Table 16.
Chain of Human ILT2-Fc (Q8NHL6 24-461 limits assumed): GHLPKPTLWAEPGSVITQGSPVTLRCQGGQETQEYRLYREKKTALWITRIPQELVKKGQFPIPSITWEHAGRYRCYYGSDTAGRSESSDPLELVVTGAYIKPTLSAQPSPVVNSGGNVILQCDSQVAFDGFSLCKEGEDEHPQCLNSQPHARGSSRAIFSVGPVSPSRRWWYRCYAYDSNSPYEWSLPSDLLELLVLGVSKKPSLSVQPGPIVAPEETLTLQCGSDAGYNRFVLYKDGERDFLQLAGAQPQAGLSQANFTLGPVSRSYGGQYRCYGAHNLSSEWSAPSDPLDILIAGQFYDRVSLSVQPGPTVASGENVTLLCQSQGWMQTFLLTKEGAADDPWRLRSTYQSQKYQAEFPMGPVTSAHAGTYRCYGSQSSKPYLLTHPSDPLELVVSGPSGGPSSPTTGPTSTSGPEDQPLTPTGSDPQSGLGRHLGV

A further assay concerns the target Human ILT4-Fc (human, UniProt Q8N423 22-460). Put plainly: SPR (Biacore) competition: blocking of human ILT4-Fc binding to HLA-A, 25 C. As for the experimental part: as §2
Assay [5] concerns the target T5, soluble human ILT4-ECD (human, UniProt Q8N423 22-460).
T5 construct: also called LILRB2 extracellular domain
Put plainly: SPR (Biacore) as described in Example 3. As for the experimental part:
(§3) The binding affinities of anti-ILT2 and anti-ILT4 antibodies were measured using a Biacore system (GE Healthcare LifeSciences). Equilibrium dissociation constant (KD) measurements were carried out with purified antibodies to evaluate their binding to human ILT2, human ILT4, and rhesus ILT2. Briefly, purified anti-ILT2 antibody 27F9, anti-ILT4 antibodies 47C8 and 48A5, and anti-ILT2/ILT4 antibodies 47H6, 51A1, 64A12, 73C4, and 73D1 were captured on a Sensor Chip Protein A (GE HealthCare). The surface of the Biacore Sensor Chip Protein A consists of a carboxymethylated dextran matrix with a recombinant Protein A variant covalently attached. Soluble human ILT2-ECD, human ILT4-ECD, or rhesus ILT2-ECD were injected at a flow rate of 30 μL/min at 25° C. The ILT2 or ILT4 proteins were used at concentrations ranging from 1.6-200 nM in PBS-P buffer with 2 fold dilutions. Kinetic data were collected over time and fit using the simultaneous global fit equation to yield affinity constants (KD values) for each antibody.
(§4) The binding affinities of the humanized antibodies to human ILT2 and human ILT4 were measured using a Biacore system as described herein. The binding affinities of antibodies Hz47H6.v2, Hz64A12, and Hz73D1.v1 are shown in Table 11 as compared with the parental antibodies.

The target in assay [6] is T1, soluble human ILT2-ECD. Put plainly: SPR (Biacore) as described in Example 3. As for the experimental part: as §3, §4
Assay [7] addresses T3, human ILT4 on cells. The assay can be described thus: cell-based or functional assay. The source holds these as a separate data set.
The target of assay [8] is T5, soluble human ILT4-ECD. The assay can be described thus: SPR (Biacore), antibody captured on Protein A chip, ILT protein injected, 25 C.
The target of assay [9] is T1, soluble human ILT2-ECD. The assay is described as above.
For assay [10], the target named is T5, soluble human ILT4-ECD. Put plainly: Biacore competition: antibody titrated against 20 nM ILT4-ECD, mixture injected over biotinylated HLA-A*1101 on a NeutrAvidin chip; blocked ligand HLA-A*1101. Here is the method: as §1
Assay [11] addresses T1, soluble human ILT2-ECD. Put plainly: Biacore competition: antibody titrated against 20 nM ILT2-ECD, mixture injected over biotinylated HLA-A*1101 on a NeutrAvidin chip. As for the experimental part:
as §1

Assay [12] deals with T6, human ILT2 chimeric reporter receptor (ILT2 extracellular domain fused to PILRbeta … (human, UniProt Q8NHL6 24-461)).
T6 construct: On the surface of NFAT-GFP reporter cells; associates with DAP12; also called ILT2 reporter cells; Human ILT2 reporter construct; not shown: The PILRbeta transmembrane/intracellular domain
T6 sequence (Q8NHL6 24-461 limits assumed, change not shown): as the sequence (Q8NHL6 24-461 limits assumed) above
The assay can be described thus: reporter cell assay (not a direct binding assay): human ILT2 reporter cells co-cultured with Raji cells, %GFP+ by FACS. As for the experimental part:
The ability of anti-ILT2/ILT4 antibodies to inhibit the interaction between ILT2 and/or ILT4 and MHC I molecules was evaluated using a reporter cell system. […] In this chimeric receptor system, the extracellular domain of the receptor of interest (e.g., ILT2 or ILT4) is fused with the transmembrane/intracellular domain of PILRβ that associates with the adaptor protein DAP12. When the chimeric receptor (e.g., ILT2 or ILT-4) is activated by binding to a ligand (e.g., MHC I molecule), DAP12 becomes phosphorylated and activates an NFAT-responsive promoter which drives GFP expression (see, e.g., Deng et al., 2014, Blood, 124:924-935).
Reporter cells were washed after staining and resuspended at 1×10⁶ cells/ml in X-VIVO™ 15 media (Lonza). […] For assays with Raji cells: anti-ILT2 antibody 27F9, anti-ILT4 antibody 48A5, anti-ILT2/ILT4 antibody 73D1 and Hz73D1.v1, and a control antibody were serially diluted and 50 μl was added to each well of a 96-well flat-bottom cell culture plate. […] The plates were incubated overnight at 37° C. The next day, reporter cells were assayed for GFP expression by FACS.

For assay [13], the target named is T2, human ILT2 on cells. The assay can be described thus: flow cytometry, fluorescently labelled antibody on immune cell subsets of PBMC / red-cell-depleted whole blood. As for the experimental part: (§5) Flow cytometry analysis of blood immune cells was performed on human and cyno PBMC and whole blood. PBMC were prepared from a leukopak (Allcells Inc.) by centrifugation through ficoll, washing with PBS and freezing in cryopreservation buffer in liquid nitrogen until use. Whole blood (Allcells Inc.) was obtained fresh and red blood cells (RBC) depleted using ammonium chloride RBC lysing solution (Biolegend). PBMC or whole blood samples were stained with a fluorescently labeled antibody panel to distinguish various immune subsets (monocytes, B cells, NK cells, CD4+ and CD8+ T cells, neutrophils and eosinophils). Samples were further stained with fluorescently labeled isotype, 27F9 (ILT2 specific), 48A5 (ILT4 specific), 73D1, and Hz73D1.v1. The number of ILT2 and ILT4 molecules per cell of each immune subset was estimated by incubation with Quantum Simply Cellular microspheres followed by flow cytometry analysis.

The target of assay [14] is T3, human ILT4 on cells. The assay is described as above. Here is the method: as §5
In assay [15] the target is T5, soluble human ILT4-ECD. The assay can be described thus: SPR (Biacore), antibody captured on Protein A chip, soluble ILT-ECD injected (1.6-200 nM), 25 C. As for the experimental part: as §3

Consider 2 molecules from US20240025997A1 (NGM BIOPHARMACEUTICALS, published 2024).

Broadly, the IC50 is the concentration at which inhibition is half-maximal. By Kd is commonly meant the concentration at which binding is half-saturated. By koff is commonly meant a measure of how fast the partners let go of each other. A word on the kon: it is the rate constant with which the complex forms.

T1 sequence (Q8NHL6 24-461): as the sequence (Q8NHL6 24-461 limits assumed) above
T5 sequence (Q8N423 other isoform, or with tags, fused parts or gaps): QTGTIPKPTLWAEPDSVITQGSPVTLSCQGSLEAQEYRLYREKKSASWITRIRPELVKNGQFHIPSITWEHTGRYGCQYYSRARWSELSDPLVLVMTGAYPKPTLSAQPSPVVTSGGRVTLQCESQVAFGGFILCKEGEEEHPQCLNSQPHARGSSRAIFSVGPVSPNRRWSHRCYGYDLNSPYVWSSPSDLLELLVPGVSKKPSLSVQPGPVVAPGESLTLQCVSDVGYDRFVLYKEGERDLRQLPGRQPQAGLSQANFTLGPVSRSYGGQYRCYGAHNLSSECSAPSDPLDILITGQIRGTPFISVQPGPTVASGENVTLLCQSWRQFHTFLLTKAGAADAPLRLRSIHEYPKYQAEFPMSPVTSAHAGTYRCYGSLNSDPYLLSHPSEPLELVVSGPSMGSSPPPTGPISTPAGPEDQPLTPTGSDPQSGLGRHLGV

B1: humanized anti-ILT2/ILT4 antibody Hz73D1.v1 (antibody, human IgG1, kappa, N297G, V domains shown)
VH: QVQLVQSGAEVKKPGASVKVSCKASGYTFTDYYINWVRQAPGQGLEWMGNVNPNDGGTTYNQKFKGRVTMTTDTSTSTAYMELRSLRSDDTAVYYCARREIYFYGTIYYYAMDYWGQGTLVTVSS
VL: DIQLTQSPSFLSASVGDRVTITCRASESVDYYGNSFMYWYQQKPGKAPKLLIYFASNLESGVPSRFSGSGSGTEFTLTISSLQPEDFATYYCQQNNEDPWTFGGGTKVEIKR
notes: Human IgG1 constant region with G at position 297, human kappa; also called Hz73D1.vi
Consider B1, for which the “IC50 (read off the curve)” value with soluble human ILT2-ECD [1] was about 9 nM. For the same molecule, in the assay with human ILT2 on cells [2], the “EC50, NKL cytolytic activity against 721.221-HLA-A*0201 target cells” value was determined as 0.13 nM; the “EC50, NKL cytolytic activity against 721.221-HLA-G target cells” value worked out at 2.4 nM; the “percent CD137+ NK cells, ADCC assay with CAL-27 cells and anti-EGFR antibody” value was 1.8 fold. In the assay with human ILT4 on cells [3], the “EC50, GM-CSF secretion of LPS-stimulated human PBMC” value is 1.5 nM and the “EC50, TNFalpha secretion of LPS-stimulated human PBMC” value is 0.76 nM. The binding result in assay [4] was “binds”. The molecule further showed an IC50 with Human ILT2-Fc of 10 nM. For the same molecule, the half-maximal inhibitory concentration (IC50) with Human ILT4-Fc is 9.4 nM. Besides, in the assay with soluble human ILT4-ECD [5], the affinity, expressed as Kd, was 0.75 nM; the koff stood at 0.00027 s⁻¹; the on-rate (kon) is 360000 M⁻¹ s⁻¹. In the assay with soluble human ILT2-ECD [6], this molecule had a dissociation constant Kd of 3 nM, a koff of 0.00025 s⁻¹ and a kon of 85000 M⁻¹ s⁻¹. For the same molecule, in the assay with human ILT4 on cells [7], the “EC50 (nM), TNFalpha secretion of tolerized dendritic cells, LPS + Cyclosporine” value was 0.2 nM; the “EC50 (nM), TNFalpha secretion of tolerized dendritic cells, LPS + IL-6” value amounted to 0.14 nM; the “EC50 (nM), TNFalpha secretion of tolerized dendritic cells, LPS + IL-10” value came to 1.2 nM; the “EC50 (nM), TNFalpha secretion of tolerized dendritic cells, LPS + PGE2” value was determined as 0.44 nM. In addition, in the assay with human ILT4 on cells [7], the “EC50 (nM), TNFalpha secretion of tolerized dendritic cells, LPS + Rapamycin” value was determined as 0.15 nM; the “EC50 (nM), TNFalpha secretion of tolerized dendritic cells, LPS + TGFβ” value amounted to 0.1 nM; the “EC50 (nM), TNFalpha secretion of tolerized dendritic cells, LPS + VitD3/Dex” value was determined as 0.4 nM. For the same molecule, in the assay with soluble human ILT4-ECD [8], binding was put at a Kd of 0.205 nM, the koff worked out at 4.6e-05 s⁻¹ and the kon turned out to be 220000 M⁻¹ s⁻¹. Also, in the assay with soluble human ILT2-ECD [9], the Kd is 1.03 nM, the koff amounted to 4.85e-05 s⁻¹ and the association rate constant (kon) came out at 47200 M⁻¹ s⁻¹. Also, the “IC50 (read off the curve)” value with soluble human ILT4-ECD [10] was about 9 nM.

B2: anti-ILT4 antibody 48A5 (antibody, V domains shown)
VH: QIQLVQSGPELKKPGETVKISCKASGYTFTNYGMNWVKQAPGKGLKWMGWINTYIGEPIYADDFKGRFAFSLETSASTAYLQINNLKNEDMATYFCARRSDYDGYAMDYWGQGTSVTVSS
VL: DIVMSQSPSSLAVSVGERVTMSCKSSQSLLYSGNQKNYLAWYQQKPGQSPKLLIYWASTRESGVPDRFTGSGSGTDFTLTISSVKAEDLAVYYCQQHDSYPTFGGGSRLEIK
notes: Mouse hybridoma antibody; also called clone 48A5; anti-ILT4 (48A5)
With B2, the binding result with soluble human ILT2-ECD [11] is “no binding (tested: about 200 nM)”; in [12], “no binding (tested: Log nM about 1.5 (about 30 nM))”; with human ILT2 on cells [13], “no binding (tested: not given)”; with human ILT4 on cells [14] it was “binds”. Besides, in the assay with Human ILT4-Fc, the IC50 worked out at 8.4 nM. In addition, binding with soluble human ILT4-ECD [15] was put at a Kd of 0.026 nM. Further, in the assay with soluble human ILT4-ECD [15], the koff turned out to be 2.1e-05 s⁻¹. The molecule also displayed a kon with soluble human ILT4-ECD [15] of 810000 M⁻¹ s⁻¹. In the assay with soluble human ILT4-ECD [10], the “IC50 (read off the curve)” value is about 20 nM.
